B1: 6×His-sortilin ICD+TMD C783A (receptor)
chain: SAPHHHHHHNSVPIILAIVGLMLVTVVAGVLIVKKYVAGGRFLVHRYSVLQQHAEANGVDGVDALDTASHTNKSGYHDDSDEDLLE
B2: 6×His-sortilin full-length (Full) (receptor)
chain: SAPHHHHHHGEDEECGRVRDFVAKLANNTHQHVFDDLRGSVSLSWVGDSTGVILVLTTFHVPLVIMTFGQSKLYRSEDYGKNFKDITDLINNTFIRTEFGMAIGPENSGKVVLTAEVSGGSRGGRIFRSSDFAKNFVQTDLPFHPLTQMMYSPQNSDYLLALSTENGLWVSKNFGGKWEEIHKAVCLAKWGSDNTIFFTTYANGSCKADLGALELWRTSDLGKSFKTIGVKIYSFGLGGRFLFASVMADKDTTRRIHVSTDQGDTWSMAQLPSVGQEQFYSILAANDDMVFMHVDEPGDTGFGTIFTSDDRGIVYSKSLDRHLYTTTGGETDFTNVTSLRGVYITSVLSEDNSIQTMITFDQGGRWTHLRKPENSECDATAKNKNECSLHIHASYSISQKLNVPMAPLSEPNAVGIVIAHGSVGDAISVMVPDVYISDDGGYSWTKMLEGPHYYTILDSGGIIVAIEHSSRPINVIKFSTDEGQCWQTYTFTRDPIYFTGLASEPGARSMNISIWGFTESFLTSQWVSYTIDFKDILERNCEEKDYTIWLAHSTDPEDYEDGCILGYKEQFLRLRKSSMCQNGRDYVVTKQPSICLCSLEDFLCDFGYYRPENDSKCVEQPELKGHDLEFCLYGREEHLTTNGYRKIPGDKCQGGVNPVREVKDLKKKCTSNFLSPEKQNSKSNSVPIILAIVGLMLVTVVAGVLIVKKYVCGGRFLVHRYSVLQQHAEANGVDGVDALDTASHTNKSGYHDDSDEDLLE
notes: 6×His inserted after Ser78-Ala79-Pro80; Written as the form after propeptide cleavage; also called 6×His-sortilin WT; 6×His-sortilin wild-type
B3: FLAG-sortilin ECD+TMD (receptor)
chain: SAPDYKDDDDKGEDEECGRVRDFVAKLANNTHQHVFDDLRGSVSLSWVGDSTGVILVLTTFHVPLVIMTFGQSKLYRSEDYGKNFKDITDLINNTFIRTEFGMAIGPENSGKVVLTAEVSGGSRGGRIFRSSDFAKNFVQTDLPFHPLTQMMYSPQNSDYLLALSTENGLWVSKNFGGKWEEIHKAVCLAKWGSDNTIFFTTYANGSCKADLGALELWRTSDLGKSFKTIGVKIYSFGLGGRFLFASVMADKDTTRRIHVSTDQGDTWSMAQLPSVGQEQFYSILAANDDMVFMHVDEPGDTGFGTIFTSDDRGIVYSKSLDRHLYTTTGGETDFTNVTSLRGVYITSVLSEDNSIQTMITFDQGGRWTHLRKPENSECDATAKNKNECSLHIHASYSISQKLNVPMAPLSEPNAVGIVIAHGSVGDAISVMVPDVYISDDGGYSWTKMLEGPHYYTILDSGGIIVAIEHSSRPINVIKFSTDEGQCWQTYTFTRDPIYFTGLASEPGARSMNISIWGFTESFLTSQWVSYTIDFKDILERNCEEKDYTIWLAHSTDPEDYEDGCILGYKEQFLRLRKSSMCQNGRDYVVTKQPSICLCSLEDFLCDFGYYRPENDSKCVEQPELKGHDLEFCLYGREEHLTTNGYRKIPGDKCQGGVNPVREVKDLKKKCTSNFLSPEKQNSKSNSVPIILAIVGLMLVTVVAGVLIV
notes: written as the form after propeptide cleavage; also called FLAG-sortilin ECD plus transmembrane domain
B4: FLAG-sortilin full-length (Full) (receptor)
chain: SAPDYKDDDDKGEDEECGRVRDFVAKLANNTHQHVFDDLRGSVSLSWVGDSTGVILVLTTFHVPLVIMTFGQSKLYRSEDYGKNFKDITDLINNTFIRTEFGMAIGPENSGKVVLTAEVSGGSRGGRIFRSSDFAKNFVQTDLPFHPLTQMMYSPQNSDYLLALSTENGLWVSKNFGGKWEEIHKAVCLAKWGSDNTIFFTTYANGSCKADLGALELWRTSDLGKSFKTIGVKIYSFGLGGRFLFASVMADKDTTRRIHVSTDQGDTWSMAQLPSVGQEQFYSILAANDDMVFMHVDEPGDTGFGTIFTSDDRGIVYSKSLDRHLYTTTGGETDFTNVTSLRGVYITSVLSEDNSIQTMITFDQGGRWTHLRKPENSECDATAKNKNECSLHIHASYSISQKLNVPMAPLSEPNAVGIVIAHGSVGDAISVMVPDVYISDDGGYSWTKMLEGPHYYTILDSGGIIVAIEHSSRPINVIKFSTDEGQCWQTYTFTRDPIYFTGLASEPGARSMNISIWGFTESFLTSQWVSYTIDFKDILERNCEEKDYTIWLAHSTDPEDYEDGCILGYKEQFLRLRKSSMCQNGRDYVVTKQPSICLCSLEDFLCDFGYYRPENDSKCVEQPELKGHDLEFCLYGREEHLTTNGYRKIPGDKCQGGVNPVREVKDLKKKCTSNFLSPEKQNSKSNSVPIILAIVGLMLVTVVAGVLIVKKYVCGGRFLVHRYSVLQQHAEANGVDGVDALDTASHTNKSGYHDDSDEDLLE
notes: signal peptide 1-33 is implied by that; Expressed in HEK293 cells; also called FLAG-sortilin WT; FLAG-sortilin wild-type
B5: FLAG-sortilin S316E (receptor)
chain: B4 chain with S247E

Data set [1] deals with the molecule itself. Kind of data set: non-reducing western blot, HEK293 cells. (A western blot detects proteins with antibodies after separation by electrophoresis.)
Data set [2] deals with B4. Kind of data set: TR-FRET and HTRF on HEK293 cells, anti-FLAG(M2)-Cryptate and anti-6HIS-XL665. The procedure:
TR-FRET and HTRF were performed as described (26). FLAG-sortilin Full HEK293 cells were harvested using dissociation solution (e.g., from Sigma Aldrich, Cat#C5914) 24 hours after transfection of 6×His-sortilin expression vector. An incubation under the circle rotator was performed at 4° C. with 1×10^6 cells/mL for TR-FRET and 2×10^6 cells/mL for HTRF containing 1 nmol/L Anti-FLAG® (M2)-Cryptate (Cisbio Bioassays, Cat#61FG2KLA, Lot#25A) and 3 nmol/L Anti-6HIS-XL665 (Cisbio Bioassays, Cat#61HISXLA, Lot#56A) in PBS supplemented with 25% FBS. For TR-FRET, cells were centrifuged at 1,000 rpm for 5 min to remove the antibodies, and resuspended in PBS, and applied into a 96-well white plate. For HTRF, cells were applied without removing the antibodies into a 96-well white plate. Then, the plate was read (excitation: 320 nm, emission: 620 nm (cutoff 570 nm), 665 nm (cutoff 630 nm), Delay […], Integration […]). The FRET signal was calculated as (the ratio of counts per seconds 665:620)×10,000, and % change of the FRET signal by 6×His-sortilin expression was expressed.

Data set [3] deals with the molecule itself. Kind of data set: non-reducing western blot; BS3 cross-linking, HEK293 cells. An excerpt: In reducing western blotting, protein expressions of FLAG-sortilin Full, ECD+TMD and ICD+TMD were detected as bands of plausible molecular size (FIG. 2B). In non-reducing western blotting where disulfide bonds can be retained, FLAG-sortilin Full and ECD+TMD expressed a couple of bands (FIG. 2C). A band of 75-100 kDa was detected as monomers (FIG. 2C). Bands of approximately 200 kDa and higher molecular weight were detected as homodimers and multimers with intermolecular disulfide bonds (FIG. 2C). Next, FLAG-sortilin Full and ECD+TMD were cross-linked using water-soluble, non-cleavable cross-linker, BS3, in HEK293 cells. Both bands of homodimers and multimers appeared via the cross-linking (FIG. 2D). […] Dimerization of FLAG-sortilin ICD+TMD was not clearly detected in the non-reducing western blotting using whole cell lysate (FIG. 2C) potentially due to low protein expression levels of FLAG-sortilin ICD+TMD (FIGS. 2B, 2C). […] Therefore, it was determined whether FLAG-sortilin ICD+TMD can undergo degradation in proteasome and lysosome by adding proteasome inhibitor, MG-132, and lysosome inhibitor, chloroquine, to FLAG-sortilin ICD+TMD HEK293 cells, respectively. […] In non-reducing western blotting, bands with molecular size approximately twice as high as monomers of FLAG-sortilin ICD+TMD were detected (FIG. 2G). […]

Substitutions are numbered along the chain they refer to. Names may count otherwise.

Regarding B1, the binding result in data set [1] is “no binding”.
For the molecule B2, the binding result in data set [2] was “binds”.
Take B3: in data set [3], the binding result is recorded as “binds”.
As to B4, in data set [3], the binding result is on record as “binds”.
Regarding B5, the binding result in data set [1] is “binds”.

Source of the values: patent US20200330553A1 (BRIGHAM AND WOMEN S HOSPITAL, published 2020).
